Laboratory results taken from publication PMC4842972, “Identification of residues crucial for the interaction between human neuroglobin and the α-subunit of heterotrimeric Gi protein” (Scientific Reports, 2016).

How the values were obtained:
Experiment in all cases: pull-down; GST-ferric Ngb (or GST alone) immobilised on glutathione-Sepharose 4B beads, incubated with truncated Gαi1; 10 mM HEPES, 150 mM NaCl, 10 mM MgCl2, 10 uM GDP, 0.1% Tween20, pH 7.4; 1 h at 4 °C; Western blot with anti-Gαi1 monoclonal antibody
Settings in all cases: both partners purified
[1] = target: T1, human WT truncated Gαi1 protein (residues 26-354), GDP-bound form (human, UniProt P63096 26-354)
T1 construct: human Gαi1 (α-subunit of heterotrimeric Gi protein), residues 26-354; lacks the N-terminal disordered region (25 amino acids); Cloned in pET151/D-TOPO with a TEV site after the His6-tag; also called WT Gαi1; not shown: His6, N-terminal, cleaved

[2] = target: T2, human truncated Gαi1 R86A single mutant, GDP-bound form (human, UniProt P63096 26-354, R86A)
T2 construct: human Gαi1, residues 26-354, with R86A; site-directed mutant of the truncated Gαi1 construct; also called R86A Gαi1; not shown: His6, N-terminal, cleaved

[3] = target: T3, human truncated Gαi1 K180L single mutant, GDP-bound form (human, UniProt P63096 26-354, K180L)
T3 construct: human Gαi1, residues 26-354, with K180L (Leu is the corresponding residue of human Gαs); site-directed mutant of the truncated Gαi1 construct; also called K180L Gαi1; not shown: His6, N-terminal, cleaved

[4] = target: T4, human truncated Gαi1 E236Q single mutant, GDP-bound form (human, UniProt P63096 26-354, E236Q)
T4 construct: human Gαi1, residues 26-354, with E236Q; site-directed mutant of the truncated Gαi1 construct; also called E236Q Gαi1; not shown: His6, N-terminal, cleaved

[5] = target: T5, human truncated Gαi1 E238N, E239Q double mutant, GDP-bound form (human, UniProt P63096 26-354, E238N | E239Q)
T5 construct: human Gαi1, residues 26-354, with E238N and E239Q (the corresponding residues of human Gαs); site-directed mutant of the truncated Gαi1 construct; also called E238N, E239Q Gαi1 double mutant; not shown: His6, N-terminal, cleaved

[6] = target: T6, human truncated Gαi1 K67A single mutant, GDP-bound form (human, UniProt P63096 26-354, K67A)
T6 construct: human Gαi1, residues 26-354, with K67A; site-directed mutant of the truncated Gαi1 construct; also called K67A Gαi1; not shown: His6, N-terminal, cleaved
T6 sequence (P63096 26-354 K67A): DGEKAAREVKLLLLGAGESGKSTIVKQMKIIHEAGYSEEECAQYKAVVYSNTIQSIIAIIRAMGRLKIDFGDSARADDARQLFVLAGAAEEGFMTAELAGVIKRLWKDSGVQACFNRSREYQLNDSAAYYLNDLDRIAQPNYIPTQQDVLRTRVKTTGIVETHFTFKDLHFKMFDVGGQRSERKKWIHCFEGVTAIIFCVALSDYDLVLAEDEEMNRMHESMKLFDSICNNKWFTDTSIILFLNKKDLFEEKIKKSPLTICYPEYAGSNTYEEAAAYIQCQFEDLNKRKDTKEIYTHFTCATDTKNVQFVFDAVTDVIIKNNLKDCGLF

T1 sequence (P63096 26-354): as the sequence (P63096 26-354 K67A) above, with A42K counted along it
T3 sequence (P63096 26-354 K180L): as the sequence (P63096 26-354 K67A) above, with A42K, K155L counted along it
T2 sequence (P63096 26-354 R86A): as the sequence (P63096 26-354 K67A) above, with A42K, R61A counted along it
T4 sequence (P63096 26-354 E236Q): as the sequence (P63096 26-354 K67A) above, with A42K, E211Q counted along it
T5 sequence (P63096 26-354 E238N/E239Q): as the sequence (P63096 26-354 K67A) above, with A42K, E213N, E214Q counted along it

| Binder | binding result [1] | binding result [2] | binding result [3] | binding result [4] | binding result [5] | binding result [6] |
| --- | --- | --- | --- | --- | --- | --- |
| GST-human ferric E151Q Ngb mutant (natural protein, human neuroglobin (Ngb) with E151Q (the residue of bush baby Ngb at this position); in pGEX-4T-1; Ferric form; made by site-directed mutagenesis of GST-Ngb; also called GST-human Ngb mutant; source: E. coli BL21 (DE3), purified (glutathione-Sepharose 4B)) MERPEPELIRQSWRAVSRSPLEHGTVLFARLFALEPDLLPLFQYNCRQFSSPEDCLSSPEFLDHIRKVMLVIDAAVTNVEDLSSLEEYLASLGRKHRAVGVKLSSFSTVGESLLYMLEKCLGPAFTPATRAAWSQLYGAVVQAMSRGWDGQ | binds |  |  |  |  |  |
| GST-human ferric WT Ngb (neuroglobin) (natural protein, human neuroglobin (Ngb); human Ngb cDNA cloned into pGEX-4T-1; also called GST-human WT Ngb; GST-human Ngb; source: E. coli BL21 (DE3), purified (glutathione-Sepharose 4B)) MERPEPELIRQSWRAVSRSPLEHGTVLFARLFALEPDLLPLFQYNCRQFSSPEDCLSSPEFLDHIRKVMLVIDAAVTNVEDLSSLEEYLASLGRKHRAVGVKLSSFSTVGESLLYMLEKCLGPAFTPATRAAWSQLYGAVVQAMSRGWDGE | binds | binds | binds | binds | binds | binds |
| GST-human ferric R97C Ngb mutant (natural protein, human neuroglobin (Ngb) with R97C (the residue of megabat Ngb at this position); in pGEX-4T-1; Ferric form; made by site-directed mutagenesis of GST-Ngb; also called GST-human Ngb mutant; source: E. coli BL21 (DE3), purified (glutathione-Sepharose 4B)) MERPEPELIRQSWRAVSRSPLEHGTVLFARLFALEPDLLPLFQYNCRQFSSPEDCLSSPEFLDHIRKVMLVIDAAVTNVEDLSSLEEYLASLGRKHCAVGVKLSSFSTVGESLLYMLEKCLGPAFTPATRAAWSQLYGAVVQAMSRGWDGE | binds |  |  |  |  |  |
